From the RNAGym collection of RNA variant scans (doi:10.7554/elife.80360)

B1: Hammerhead Ribozyme (parent)
chain: ACCGGAUGUGCUUUCCGGUCUGAUGAGUCCGUGAGGACGAAACAG

Variants of: B1
Assay: self-cleavage, relative activity (ratio to wild type); higher = more cleavage; co-transcriptional

Variant	self-cleavage
G8C U9G	0.771
G8C U9C	1.05
G8C U9A	0.907
G8U U9A	1.11
G8U U9C	1
G8U U9G	0.751
G8A G35U	0.588
G8A G35C	0.543
G8A G35A	0.939
G8C A44G	1.47
G8C A44U	0.56
G8C A44C	0.608
G8C G36C	0.791
G8C G36A	0.652
G8C G36U	0.772
G8C A26C	0.434
G8C A26U	0.827
G8C A26G	0.278
G8C G33A	1.11
G8C G33U	0.971
G8C G33C	0.867
G8U C16U	1.27
G8U C16A	0.908
G8U C16G	0.731

Variant	self-cleavage
G8C U21G	0.432
G8C U21A	0.784
G8C U21C	0.611
G8U U14G	0.94
G8U U14A	1.15
G8U U14C	1.06
G8U C29A	0.488
G8U C29U	1.01
G8U C29G	0.847
G8A C16G	1.03
G8A C16A	1.2
G8A C16U	1.13
G8C G39A	0.347
G8C G39C	0.407
G8C G39U	0.441
G8U U24C	0.829
G8U U24G	1.11
G8U U24A	1.24
G8U C15A	0.884
G8U C15G	0.637
G8U C15U	1.05
G8A A23G	0.325
G8A A23U	0.383
G8A A23C	0.396

Variant	self-cleavage
G8U C30A	0.803
G8U C30G	0.942
G8U C30U	0.942
G8U G10A	1.47
G8U G10C	1.07
G8U G10U	1.04
G8C G35A	0.769
G8C G35C	0.726
G8C G35U	0.775
G8C C30G	0.886
G8C C30A	0.708
G8C C30U	0.981
G8U U13C	1.34
G8U U13G	1.05
G8U U13A	1.1
G8A C38G	0.708
G8A C38A	0.56
G8A C38U	0.926
G8C G17A	0.663
G8C G17C	0.397
G8C G17U	0.752
G8A G36C	0.508
G8A G36A	0.424
G8A G36U	0.5

Variant	self-cleavage
U7G U32C	1.03
U7G U32G	0.796
U7G U32A	1.49
G8U A40G	0.376
G8U A40C	0.566
G8U A40U	0.301
G8U C38U	0.893
G8U C38G	0.887
G8U C38A	0.774
G8C G27U	0.519
G8C G27C	0.63
G8C G27A	0.787
G8C G45A	0.536
G8C G45C	0.717
G8C G45U	0.546
G8C G18A	0.509
G8C G18U	0.611
G8C G18C	0.564
G8A U9A	0.863
G8A U9C	1.33
G8A U9G	0.85
G8U G22A	0.37
G8U G22U	0.348
G8U G22C	0.354

Variant	self-cleavage
G8A G10C	1.46
G8A G10A	1.16
G8A G10U	1.31
G8C A23U	0.328
G8C A23C	0.45
G8C A23G	0.376
G8U U19C	0.649
G8U U19A	0.398
G8U U19G	0.369
G8A G27U	0.451
G8A G27A	0.874
G8A G27C	0.665
G8C U14G	1.11
G8C U14A	1.08
G8C U14C	0.785
G8A A40U	0.343
G8A A40C	0.683
G8A A40G	0.235
G8C C43U	0.455
G8C C43G	0.403
G8C C43A	0.343
G8A G25U	0.353
G8A G25C	0.276
G8A G25A	0.405

Variant	self-cleavage
G8U A44C	0.59
G8U A44U	0.688
G8U A44G	1.37
G8A U21C	0.742
G8A U21A	0.475
G8A U21G	0.4
G8U A23C	0.504
G8U A23U	0.324
G8U A23G	0.363
G8U G33U	1.07
G8U G33C	0.57
G8U G33A	0.938
G8U G45A	0.744
G8U G45U	0.826
G8U G45C	0.768
G8A C15U	0.835
G8A C15A	0.937
G8A C15G	0.957
G8U G39C	0.417
G8U G39U	0.344
G8U G39A	0.395
G8A U13A	1.04
G8A U13G	1.24
G8A U13C	1.2

Variant	self-cleavage
G8A A44G	1.41
G8A A44U	0.648
G8A A44C	0.508
G8U G18U	0.779
G8U G18C	0.513
G8U G18A	0.684
G8U G25C	0.302
G8U G25A	0.317
G8U G25U	0.391
G8C	1.06
G8A	1.05
G8U	1.02
G8A G39A	0.417
G8A G39C	0.298
G8A G39U	0.369
G8U U28A	0.966
G8C C11U	1.02
G8C C11G	1.25
G8C C11A	1.43
G8U C20G	0.392
G8U C20A	0.571
G8U C20U	0.551
G8A G18A	0.664
